Results as given in the DeepSol protein solubility set.

Assay: soluble on expression in E. coli; label from the status in PepcDB or PDB records

Sequence	soluble on expression in E. coli
SSDANLDSSKKNFLEGEVDDEESVILTLVPVKDDANMEQMEPSVSSTSDVKLEKPKKYNPGHLLQTNEQFTAPQKARCKIPALPLPTILPPINKVCRDTLRDWCQQLGLSTNGKKIEVYLRLHRHAYPEQRQDMPEMSQETRLQRCSRKRKAVTKRARLQSSYEMNERAEETNTVEVITSAPGAMLASWARIAARAVQPKALNSCSIPVSVEAFLMQASGVGWCVVHGRLLSADTKGWVRLQFHAGQAWVPTTHRRMISLFLLPACIFPSPGIEDNMLCPDCAKRNKKMMKRLMTVEK	soluble
MSELEKTFGIKVSPGAIYPILSSLRKSGLIEVAREGKREKKLYRITEKGEEYLKKHEDEVEEALEIANKLKEFSELGGREVAQVLREVIENIDKLSEEQKTALAREFSEFVKRIKIILLGGE	soluble
SLSERTFNWKNKDIRAQVDVVDSKLLPTLLLRNALVLNPYVKQWLKKNIWIYQDRIVYVGHELPNRAEEIHTIDCEGKYIVPGYIEPHAHPFQIYNPQTLAEYVSQYGTTTFVNDNLFLLLQSGKKKALTILNELKKQPVQYFWWSRYDLQTEVLNEDHVLPFDVRKQWIEHPDVIQGGEMTGWPRLVDGDDLMLHCMQATKKQRKRIEGHFPGASDKTLTKMKLFGADCDHEAMTGDEVMRRLELGYYVSLRNSSIRPDVRKILQELHEKGFRYYDHFFYTTDGATPNFYKGGMTNELIRIALEEGVPAIDAYNMASFNIAKYYQMDDYLGVVGPGRLASLNILEDPLNPNPVTVLSKGTILRENGCDLKAFTKTDWHKGGLVPLELSYDMTMDDLQFSMPMGVKMRNAVIMEPYMIEIDNSMEQLSFDHDESYLTMLDRHGKWRVNTMIKGFASSVQGFVSSFTTTGDIVAIGKNKADMLLAFARMKEIGGGIVLAENGNILHEIPLALCGCASSEAYEDVLEKEQKLRDLLTERGYEFCDPIYTLLFLQSTHLPYIRITPRGIFDVMKKTVLFPSIMR	soluble
MGSDKIHHHHHHMSHQSTHPHHTWVQSHHPVHLETKSPPHKEPMFYYFAYGSCMCPVDLKRSLGENTHPYIIGPGVLKGYRLGFYLYLPSRKCGVLDIVKDPKASVKGVLYQLPLRLSEYLDQREGVSQNLYRHESVEIHSHSRVYQDVRTYVVVNKSEEEVAPNDWYFNVVLRGAVTCGLPEEYCWHLFNHMHKLQQRHQEQKFRRSA	not soluble
MDLIPARIGLIYNPLGGWFRKHTARMQSLLATLPEIRQIQATDQIEFERAVTVVVEAKIGWLIVVGGDGTLQGVMSCLFECLPPDRWPEITIVPAGTTNMTALDLGMNGQAEQILSRIRQHLQRPGDMKQVRRP	not soluble
SLERYIDGRAVKADIFDHPVSYNINEITHTDDVHEALTASLNKYGNVDMAYMESLTDKSQSDLLEELRGRIFYNPLSKNYEIADRFISGNVMAKAEHIEEYLQSHPDNGEARISLEALRQSLPAPIPFEDLDFNFGERWIPAGVYSRYASWLFDTDVSVRYTASSDEYSIRADMTSPRIMNQYSVRSESRIFNGIALMRHAIHNTTPNITKTVLDKTGKEMKIRDPEVTLLANSKIDEIRNGFSDWLMEQSPEFKRKMADMYNRKFNCFVRPKYDGSHQSFPGLDLKGLGIPDLYPSQ	not soluble
MSNCEIIAVHGGACAKFDASLAEDCRFACGTGTVENALTDLERIEKFNCGFGSHLTIDQEVECEASYMSSKNLSFGAVGAISNVFHPSRVARHLAHSNWWKQRRLLHPLILVGRGAEKYAVKNDFPTCTPEELVSKAAKESFEKYLHRMLHPYDTHDTVGAISINTNTMNSESGTSSGGIVLKHSGRLGHSCVYGSGTWSERRQYEEPFDQVSERTISICSTGHGESLVKADFCRGIATRVLDDEEGIMYSEIIREFIHEKMEHGSRYGGIALIADKFKDRMSLEFLIFHNCRYLPAAVRCRDNQIRVFESQFDPDQCTTDPKCVIESFIM	not soluble
MSLKEKLVAIVGPTAVGKTKTSVMLAKRLNGEVISGDSMQVYRGMDIGTAKITAEEMDGVPHHLIDIKDPSESFSVADFQDLATPLITEIHERGRLPFLVGGTGLYVNAVIHQFNLGDIRADEDYRHELEAFVNSYGVQALHDKLSKIDPKAAAAIHPNNYRRVIRALEIIKLTGKTVTEQARHEEETPSPYNLVMIGLTMERDVLYDRINRRVDQMVEEGLIDEAKKLYDRGIRDCQSVQAIGYKEMYDYLDGNVTLEEAIDTLKRNSRRYAKRQLTWFRNKANVTWFDMTDVDFDKKIMEIHNFIAGKLEEKSKEGHHHHHH	soluble
MGSDKIHHHHHHMRNQSKMPLVERLDAHAKSCPISLHVPGHKSGAIYPDAWQKFLKWDVTEITGMDDLHHPEDVILEAEELLAECYGSKKSYFLVNGTSGGSLAVIMATLKHGEKVLVPRDAHKSILHGIELAGGEPIFLTPATNKEVGVASGVTTELLEETLHNHPDIKLCIFTYPSYYGTTFNLHKCIQIAHDFGAVVFVDEAHGAHFLTSSEFPKSAVELGADVVVQSAHKTLPALTMGSYLHVVNDLPIFEKLPYYLQVFQTSSPSYLIMASLDAARKYAATYTAADVEAFWKMRARWIKWLTKNKFDVILPDDPLKIIVRKTGYTGYELQAIFEESSYFPELADESQVLLILPLIKKGIDFTPISRIHSPVKKEIAKEPYEMSAPFASGLALTYEEMHARATEFVLLDEATTRVSAETISLYPPGIPAIIRGESITEKHIRELKNIRTRHYQGGEKLAENYIRVFR	not soluble
MTGATGFIGKYIIDNLLARGFHVRALTRTARAHVNDNLTWVRGSLEDTHSLSELVAGASVVVHCAGQVRGHKEEIFTRCNVDGSLRLMQAAKESGFCQRFLFISSLAARHPELSWYAKSKYVAEQRLAAMADEITLGVFRPTAVYGPGDKELKPLFDWMLRGLLPRLGAPDTQLSFLHVTDFAQAVGQWLSAETVQTQTYELCDGVAGGYDWQRVRQLAAKARCGSVRMVDIPLPVLTGLADISTALSRLAGKEPMLTRSKIRELTHADWSASNNRISEDINWFPGISLEHALRNGLF	not soluble
MILAIFSLRLLLIPTIDEPESIVTQLENAIDPVTQVPDFSAITDVAEKKRAFFDFLRPIVQQQNAIIASEREFITDMLAIVENGNALSDSQSAQLNQIFDKYLYAARNVDAKSLNSLLKRVDIIPESMVLIQAANESGWGSSRFAREGFNFFGEWCFSNGCGIVPSSRGSGKTHEVKIFPSVDASVSSYMRNLNSNTAYNLFRSIRADLRAQEAELNADQLIYGLVNYSERQEAYIDELLDMLRHNAKYLVKADV	soluble
MILLLAGTSDARELAVMIQQAGYNVTATVVTDHAAEQLRSAGIRAYVGRLDASQLADLAKAEGAKAIVDASHPFAEEASKNAMQAAADAGLPYIRYERQASSFSSEKVTFVDSYEEAADLAAEKGGVVMLTTGSKTIDIFAARLIGRPDVKVIARMLPRKDNLDKCERLGFSQEQIVMMQGPFTKELDRALYRHFGVTVVVTKESGKVGFVDEKIAAAEELGIDVIVIRRPRLSYGIVHHDFAGVLDALKQHAPLPTV	not soluble
MARTVFCTRLQKEADGLDFQLYPGELGKRIFDNICKEAWAQWQTKQTMLINEKKLNMMDPEHRKLLEQEMVNFLFEGKEVHIEGYTPPAK	not soluble
MTKIACVIVTYNRKQLLEEALNSVLIQTESPEYVFVIDNASTDGTEKYINDKFNFDNRQWHYVRCSQNLGGSAGFAQGMRLALQTDCSWISISDDDAIFEPGYFAALRKGIKQYPEQSVFSGSVLLPDGKHDMMHREVITNSATLTVRCVTDETYKHDFSYDIFSFVGILLSRQVIEAIGLPEQDYFIRFDDFEYAVRALKFGRFMNLSAAKVLHKTTYTRSALEHHHHHH	not soluble
MFKFLMIISMSKHIKRAAKNREDLLEAAVEMFKTHGMMVPLQVIIDHANVGRATFYRNFADRKMLVYALLEQSLVKLKQRTQLYQTYPDGLIRLIQSHVNHLNHLSALMEYWRVLDYSDTSLQALIQQHQRIIQPLIDQAILHKVCRPDFNFEDYRSIVTMLSSSFRGHTEQEQIRMASRVIDLLLNGICLNQEESHG	not soluble
PGATPMSLGLFSPTILLPDSAREWPPERQRLVLLHEMAHLKHRDLLLGLVGQLGRALHWPNPLAWTGWSKLLQAREAACDETVLAAGEDPETYAHQLLAAAR	not soluble
MSTCKQFLSTKKKSKDSYEFIENLGEGSFAEVVLVAKVGTPNKMFAMKEISIVGKDECFMESIKRECSIQKRLSKSRHLNMIHLFEIRTNPENYQLILSYADGGDLFEKINQHGGLGSDEAHRYFKQLIDGLRFIHEEGVTHRDIKPENLLLTKSGILKIADFGFATMHRFNGAEQMLNAYCGSPPYIAPEVLTGIDYRGPAVDIWSAGVVLIAMIAGAVPWEQADHFDIFQSRYCSFRRNGRKGAWSRMSQQVISLLRKILLQAELRATISMIEEDPWFIYGEEVDAENKENGSQAQYRQESQTSSKPILNFENLLKDLNVSI	not soluble
MGSDKIHHHHHHMDEQVTILHTNDIHSHFENWPRIQRYLLTEREQRRQSGSHVITVDLGDAVDRAHPLSEATQGQANVALLNAIGYDAVTIGNNEGLGLTHAALNRLYDRANFDVVLDNLTDTATQRPPQWALPAKIITTARGTRVLLLAFTAPFTLTYPLNGWTPASVKTRFPELLRQYAGQYDVLIVMSHLGINVDRWLAKQFPVIDVVIGSHTHHLLVNGELKNGVLIAAAGKYGEYIGRIELTIDHQHHVKAAAAHTVATASLPIVAGDETLITGWEQQGETLLTRQVVAKVPTQLRPHWHHASDLTALGLAAITDYAKTDLGMLNGGLFMRDLPAGMVNRNDLHTMLPHAMHVIRVTLSGEALWRLVYEMELVRPFLNKFPIKGMGFRGQVFGYIQYQGLTWKTGQHTLLVNGQPVNRQQTYQIALLDHDLFIPFFPTINISGRTEILFEAMLRTVVGDYLMRRWPVK	not soluble
MTDTRKFKATDLFSFNNINLDPLTETFNISFYLSYLNKWPSLCVVQESDLSDPTLMGYIMGKSEGTGKEWHTHVTAITVAPNSRRLGLARTMMDYLETVGNSENAFFVDLFVRASNALAIDFYKGLGYSVYRRVIGYYSNPHGKDEDSFDMRKPLSRDVNRESIRENGENFKCSPADVSF	soluble
MNHVKKHVLWKDEYFERYYRLNPELVQKRLDKIYQAEDDLMVLISTQLFCFLQANGTLYFDGCYKTGKADNSLLCTNLALWSIELACDHFDIREERGHTTKFSEQGESWLTLFACNQFSLVPYCYPAIQRGFQSGVLKEIVPFYREQKLGILAMEIMARERGDTINWEAMQVRVDPVYLDFCQNILLSSDDELVRTGLITLCDKHLEWTDFHNSDKHCCLTGYEIQRQDLLLWPFEYQAVKNWRARQGLSTPMIEHPLMNSPMTTANCPDFSQWQRPEWFNPLVDFLAQRRPELAFLRHLFI	not soluble
MSLRYDRAGDQHYDVASALIKSMRGSDVDAALHYLARMVEAGEDPRFIARRIVIAAAEDVGMADPSALQTAVAAMHAVAQIGMPEARIVLAQAVVHNATAPKSNAAYAGINAAIADVRAGLGGSVPAHLRDAHYAGAGKLGHGKGYVYTHDVPAGVAEQQYAPDELVGKDYYVPTDRGFENQLRERLARLRRVLRGREGHHHHHH	soluble
MGSDKIHHHHHHMQDYYSTLIGWMIPISRAMEAHQIDLTTALKECNISQDVMTDQESRIAAEKFYNLIEYCNKKLGRHDFSILIAEQFHPGMFHALGYAMMSSNTLQDALDRIAHYKRVVSNTCQLVTYESNNQLVFEMNIFTYEGTNRPVLSLATVETFLATIIRFARELVTLDFSPEKICFAYQKPAHDVTYLEEFFNCDIEFNSDKNAIIFNFEQAQEKLMCGNPLITHSHEKMLDEFMARIDKNDLSHVIKNKIFDLLPLGAPSQIVIAEDLGMSLRNLQRKLQEQGTSYKEILESTRKKLAMDYIVQQHLSLSEIGYLVGFSSVGNFNRAFKRWTNQTPGEYRQSKKT	not soluble
